How the values were obtained:
Assay in all cases: Biacore (SPR)
hBMP4 = molecular target: T1, hBMP4 (human, UniProt P12644 293-408)
T1 sequence (looked up): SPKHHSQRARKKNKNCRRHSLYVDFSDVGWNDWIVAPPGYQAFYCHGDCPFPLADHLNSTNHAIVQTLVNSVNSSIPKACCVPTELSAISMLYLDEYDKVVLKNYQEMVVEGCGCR

hBMP7 = molecular target: T2, hBMP7 (human, UniProt P18075 293-431)
T2 sequence (looked up): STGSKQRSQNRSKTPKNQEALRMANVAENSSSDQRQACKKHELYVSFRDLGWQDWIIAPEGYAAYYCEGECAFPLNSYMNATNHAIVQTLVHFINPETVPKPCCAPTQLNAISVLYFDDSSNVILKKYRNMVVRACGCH

hBMP2 = hBMP2 (human, UniProt P12643 283-396)
Chain of hBMP2 (P12643 283-396 limits assumed): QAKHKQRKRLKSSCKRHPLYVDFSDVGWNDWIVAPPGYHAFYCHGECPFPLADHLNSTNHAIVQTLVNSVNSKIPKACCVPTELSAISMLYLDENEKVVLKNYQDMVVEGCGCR

Kd (hBMP4): 0.947 nM
binding result (hBMP7): binds
Kd (hBMP2): 2.43 nM
B1: mALK3(24-152)-mFc derived from HEK 293 cells (Fc fusion)
chain: GAQNLDSMLHGTGMKSDLDQKKPENGVTLAPEDTLPFLKCYCSGHCPDDAINNTCITNGHCFAIIEEDDQGETTLTSGCMKYEGSDFQCKDSPKAQLRRTIECCRTNLCNQYLQPTLPPVVIGPFFDGSIRTGGGEPRVPITQNPCPPLKECPPCAAPDLLGGPSVFIFPPKIKDVLMISLSPMVTCVVVDVSEDDPDVQISWFVNNVEVHTAQTQTHREDYNSTLRVVSALPIQHQDWMSGKEFKCKVNNRALPSPIEKTISKPRGPVRAPQVYVLPPPAEEMTKKEFSLTCMITGFLPAEIAVDWTSNGRTEQNYKNTATVLDSDGSYFMYSKLRVQKSTWERGSLFACSVVHEGLHNHLTTKTISRSLGK
notes: The Gly-Ala at 23-24 may also be absent, since the main species of the human construct starts at Gln; also called mALK3-mFc

Source: patent US20180305438A1 (ACCELERON PHARMA, published 2018)
